Experimental data as given in patent publication US20100172907A1 (Hoffmann-La Roche, published 2010).
Groups on a side chain read outwards from the residue. No end group written: not given here. NSMP = not defined here

T1: BSA-conjugated Aβ heptapeptide VFFAEDC (C-terminal Cys coupled to NSMP-activated BSA)
T1 construct: also called Peptide 18-23
T1 peptide: VFFAEDC

T2: BSA-conjugated Aβ heptapeptide AEFRHDC (C-terminal Cys coupled to NSMP-activated BSA)
T2 construct: also called Peptide 2-7
T2 peptide: AEFRHDC

T3: BSA-conjugated Aβ heptapeptide LVFFAEC (reading uncertain; also: BSA conjugate)
T3 construct: also called Peptide 17-22
T3 peptide: LVFFAEC([NSMP-BSA])

T4: BSA-conjugated Aβ heptapeptide FFAEDVC (C-terminal Cys coupled to NSMP-activated BSA)
T4 construct: also called Peptide 19-24
T4 peptide: FFAEDVC


Legend:
[1] = biological target: T5, Aβ (1-42) peptide (human); assay: SPR, immobilized fibers;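 further: biacore SPR using in vitro grown Aβ1-40 or Aβ1-42 fibrils immobilized on the chip with Fab analytes, KD from koff/kon fits or equilibrium isotherms based on total Fab concentration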
T5 construct: also called Aβ1-42 fibers; Aβ4
Protocol: (§1) Biacore2000 and Biacore3000 instruments were used for these measurements. Aβ1-40 and Aβ1-42 fibers were generated in vitro by incubation of synthetic peptides at a concentration of 200 μg/ml in 10 mM Na-acetate buffer (pH 4.0) for three days at 37° C. […] For binders with slow kinetics KD values were calculated by curve fitting of the time-dependent sensor responses, i.e. from the ratio of koff/kₒₙ. Binders with fast kinetics were analyzed by fitting the concentration-dependent sensor responses at equilibrium (adsorption-isotherms). KD values were calculated from the Biacore sensograms based on the total Fab concentration as determined by a protein assay. […] Briefly, time-dependent protein binding to Aβ1-40 fibers immobilized on the Biacore chip was measured during the association phase under mass-limited conditions at different flow rates of the analyte solution.

[2] = biological target: T6, human Aβ (1-40) peptide (human); assay: SPR, immobilized fibers;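 further: biacore SPR using in vitro grown Aβ1-40 or Aβ1-42 fibrils immobilized on the chip with Fab analytes, KD from koff/kon fits or equilibrium isotherms based on total Fab concentration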
T6 construct: also called Aβ1-40 fibers
Protocol: as §1

[3] = biological target: T1, BSA-conjugated Aβ heptapeptide VFFAEDC; assay: ELISA
Protocol: (§2) 50 μl of NSMP activated BSA (6.7 mg/ml) was diluted with 50 μl of PBS, 0.1% sodium azide and 10 μl of peptide solution (1 mM in DMSO) was added. As negative control activated BSA was mock-treated without peptide addition. After 4 hrs at room temperature the reaction was stopped by addition of 10 μl of 10 mM Cystein. An aliquot of the conjugate reaction mixture was diluted 1:100 with 0.1M sodium bicarbonate buffer and immediately filled into the wells (100 μl) of ELISA plates (Nunc Immuno-Plate). After standing 16 hrs at 4° C. 100 μl blocking buffer (as above) was added to each well and incubated for another 30 minutes. The plates were washed with 2×300 μl/well TBST (as above) and filled with 100 μl antibody at 10 μg/ml or 2 μg/ml in blocking buffer. The plates were kept 16 hours at 4° C. and washed with 2×300 μl TBST. 100 μl/well HRP-conjugated anti-human Ig H+L (Pierce, dilution 1:1000 with blocking buffer) was added and incubated for 1 hour at ambient temperature. The plates were washed with 3×300 μl/well TBST. Colour development was started by addition of 100 μl tetra-methyl benzidine/hydrogen peroxide reagent.

[4] = biological target: T2, BSA-conjugated Aβ heptapeptide AEFRHDC; assay: ELISA
Protocol: as §2

[5] = biological target: T3, BSA-conjugated Aβ heptapeptide LVFFAEC; assay: ELISA
Protocol: as §2

[6] = biological target: T4, BSA-conjugated Aβ heptapeptide FFAEDVC; assay: ELISA
Protocol: as §2
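Wherever OD ratio 17-22/BSA is given: ELISA of antibody at 10 or 2 µg/ml binding plate-coated BSA–peptide conjugates, detected with HRP anti-human Ig and TMB colour, mock-treated BSA without peptide as negative control.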
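Wherever OD ratio 18-23/BSA is given: ELISA of antibody at 10 or 2 µg/ml binding plate-coated BSA–peptide conjugates, detected with HRP anti-human Ig and TMB colour, mock-treated BSA without peptide as negative control.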
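Wherever OD ratio 2-7/BSA is given: ELISA of antibody at 10 or 2 µg/ml binding plate-coated BSA–peptide conjugates, detected with HRP anti-human Ig and TMB colour, mock-treated BSA without peptide as negative control.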
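Wherever Peptide-ratio 18-23/2-7 is given: ELISA of antibody at 10 or 2 µg/ml binding plate-coated BSA–peptide conjugates, detected with HRP anti-human Ig and TMB colour, mock-treated BSA without peptide as negative control.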

| Binder | Kd [1] [nM] | Kd [2] [nM] | OD ratio 18-23/BSA [3] | Peptide-ratio 18-23/2-7 [3] | OD ratio 2-7/BSA [4] | OD ratio 17-22/BSA [5] | Peptide-ratio 17-22/2-7 [5] | OD ratio 19-24/BSA [6] | Peptide-ratio 19-24/2-7 [6] |
| --- | --- | --- | --- | --- | --- | --- | --- | --- | --- |
| MS-Roche #7 Fab (Fab, V domains shown, parental HuCAL Fab; also called MSR-7 Fab; MS-R 7) VH: not shown VL: DIVLTQSPATLSLSPGERATLSCRASQSVSSSYLAWYQQKPGQAPRLLIYGASSRATGVPARFSGSGSGTDFTLTISSLEPEDFATYYCFQLYSDPFTFGQGTKVEIKR | 1710 | 1100 | 7 | 0.29 | 24 | 4 | 0.17 | 4 | 0.17 |
| MS-Roche #7.9.H1 Fab (Fab, V domains shown, assembled) VH: QVQLVESGGGLVQPGGSLRLSCAASGFTFSSYAMSWVRQAPGKGLEWVSAINANGQRKFYADSVKGRFTISRDNSKNTLYLQMNSLRAEDTAVYYCARGKGNTHKPYGYVRYFDVWGQGTLVTVSS VL: DIVLTQSPATLSLSPGERATLSCRASQSVSSSYLAWYQQKPGQAPRLLIYGASSRATGVPARFSGSGSGTDFTLTISSLEPEDFATYYCLQIYNMPITFGQGTKVEIKR |  |  | 12 | 0.36 | 32 | 7 | 0.23 | 6 | 0.19 |
| MS-Roche #7.2.H2 Fab (Fab, V domains shown) VH: QVQLVESGGGLVQPGGSLRLSCAASGFTFSSYAMSWVRQAPGKGLEWVSAINGTGMKKYYADSVKGRFTISRDNSKNTLYLQMNSLRAEDTAVYYCARGKGNTHKPYGYVRYFDVWGQGTLVTVSS VL: DIVLTQSPATLSLSPGERATLSCRASQSVSSSYLAWYQQKPGQAPRLLIYGASSRATGVPARFSGSGSGTDFTLTISSLEPEDFATYYCQQIYSFPHTFGQGTKVEIKR | 8.2 | 8.2 | 10 | 0.63 | 16 | 10 | 0.63 | 10 | 0.63 |
| MS-Roche #7.2 Fab (Fab, V domains shown) VH: not shown VL: DIVLTQSPATLSLSPGERATLSCRASQSVSSSYLAWYQQKPGQAPRLLIYGASSRATGVPARFSGSGSGTDFTLTISSLEPEDFATYYCQQIYSFPHTFGQGTKVEIKR | 58 | 22 | 16 | 0.47 | 34 | 12 | 0.35 | 9 | 0.26 |
| MS-Roche #7.2.H1 Fab (Fab, V domains shown) VH: QVQLVESGGGLVQPGGSLRLSCAASGFTFSSYAMSWVRQAPGKGLEWVSAINANGLKKYYADSVKGRFTISRDNSKNTLYLQMNSLRAEDTAVYYCARGKGNTHKPYGYVRYFDVWGQGTLVTVSS VL: DIVLTQSPATLSLSPGERATLSCRASQSVSSSYLAWYQQKPGQAPRLLIYGASSRATGVPARFSGSGSGTDFTLTISSLEPEDFATYYCQQIYSFPHTFGQGTKVEIKR | 10.2 | 9.3 | 11 | 0.29 | 38 | 8 | 0.21 | 9 | 0.24 |
| MS-Roche #7.2.H5 Fab (Fab, V domains shown) VH: QVQLVESGGGLVQPGGSLRLSCAASGFTFSSYAMSWVRQAPGKGLEWVSAINATGRSKYYADSVKGRFTISRDNSKNTLYLQMNSLRAEDTAVYYCARGKGNTHKPYGYVRYFDVWGQGTLVTVSS VL: DIVLTQSPATLSLSPGERATLSCRASQSVSSSYLAWYQQKPGQAPRLLIYGASSRATGVPARFSGSGSGTDFTLTISSLEPEDFATYYCQQIYSFPHTFGQGTKVEIKR | 10.1 | 8 | 18 | 0.6 | 30 | 13 | 0.43 | 15 | 0.5 |
| MS-Roche #7.2.H4 Fab (Fab, V domains shown) VH: QVQLVESGGGLVQPGGSLRLSCAASGFTFSSYAMSWVRQAPGKGLEWVSAINSKGSRIYYADSVKGRFTISRDNSKNTLYLQMNSLRAEDTAVYYCARGKGNTHKPYGYVRYFDVWGQGTLVTVSS VL: DIVLTQSPATLSLSPGERATLSCRASQSVSSSYLAWYQQKPGQAPRLLIYGASSRATGVPARFSGSGSGTDFTLTISSLEPEDFATYYCQQIYSFPHTFGQGTKVEIKR | 5 | 5.9 | 13 | 0.57 | 23 | 12 | 0.52 | 12 | 0.52 |
| MS-Roche #7.2.H3 Fab (Fab, V domains shown) VH: QVQLVESGGGLVQPGGSLRLSCAASGFTFSSYAMSWVRQAPGKGLEWVSAINANGYKTYYADSVKGRFTISRDNSKNTLYLQMNSLRAEDTAVYYCARGKGNTHKPYGYVRYFDVWGQGTLVTVSS VL: DIVLTQSPATLSLSPGERATLSCRASQSVSSSYLAWYQQKPGQAPRLLIYGASSRATGVPARFSGSGSGTDFTLTISSLEPEDFATYYCQQIYSFPHTFGQGTKVEIKR | 5.3 | 45.4 | 20 | 0.61 | 33 | 17 | 0.52 | 18 | 0.55 |
| MS-Roche #7.4.H1 Fab (Fab, V domains shown) VH: QVQLVESGGGLVQPGGSLRLSCAASGFTFSSYAMSWVRQAPGKGLEWVSAINATGYRTYYADSVKGRFTISRDNSKNTLYLQMNSLRAEDTAVYYCARGKGNTHKPYGYVRYFDVWGQGTLVTVSS VL: not shown |  |  | 20 | 0.65 | 31 | 16 | 0.52 | 16 | 0.51 |
| MS-Roche #3.4.H2 Fab (Fab, V domains shown, H-CDR2 printed with 16 residues) VH: QVQLVESGGGLVQPGGSLRLSCAASGFTFSSYAMSWVRQAPGKGLEWVSVIDMVGHTYYADSVKGRFTISRDNSKNTLYLQMNSLRAEDTAVYYCARLTHYARYYRYFDVWGQGTLVTVSS VL: not shown |  |  | 1 | 0.06 | 16 | 11 | 0.69 | 1 | 0.06 |
| MS-Roche #7.12.L1 Fab (Fab, V domains shown) VH: QVQLVESGGGLVQPGGSLRLSCAASGFTFSSYGMSWVRQAPGKGLEWVSNISGSGSSTYYADSVKGRFTISRDNSKNTLYLQMNSLRAEDTAVYYCARGKGNTHKPYGYVRYFDVWGQGTLVTVSS VL: DIVLTQSPATLSLSPGERATLSCRASQYVFRRYLAWYQQKPGQAPRLLISGSSNRATGVPARFSGSGSGTDFTLTISSLEPEDFAVYYCLQLYNIPNTFGQGTKVEIKR | 3.8 |  | 12 | 0.7 | 16 | 10 | 0.6 | 10 | 0.59 |
| MS-Roche #3.4.H7 Fab (Fab, V domains shown) VH: QVQLVESGGGLVQPGGSLRLSCAASGFTFSSYAMSWVRQAPGKGLEWVSVISETGKNIYYADSVKGRFTISRDNSKNTLYLQMNSLRAEDTAVYYCARLTHYARYYRYFDVWGQGTLVTVSS VL: not shown | 31.7 | 19.2 | 6 | 0.25 | 24 |  |  | 5 | 0.21 |
| MS-Roche #3.6.L2 Fab (Fab, V domains shown) VH: not shown VL: DIVLTQSPATLSLSPGERATLSCRASQFLSRYYLAWYQQKPGQAPRLLIYGASSRATGVPARFSGSGSGTDFTLTISSLEPEDFAVYYCQQTYNYPPTFGQGTKVEIKR | 13.1 | 13.7 |  |  |  |  |  |  |  |
| MS-Roche #3.6.H3 Fab (Fab, V domains shown) VH: QVQLVESGGGLVQPGGSLRLSCAASGFTFSSYAMSWVRQAPGKGLEWVSVISETGKFIYYADSVKGRFTISRDNSKNTLYLQMNSLRAEDTAVYYCARLTHYARYYRYFDVWGQGTLVTVSS VL: not shown | 7.5 | 5.4 |  |  |  |  |  |  |  |
